This series has as its system MBP-SpC33Leu fusion protein.

Regarding enterokinase, the “cleavage of the fusion protein, MALDI-MS” value is “No detectable amounts of MBP-linker-SP-C33(Leu) were observed, suggesting that the applied proteolytic reaction conditions result in a quantitative process”.

For the origin of these results see US20130303726.
